Results: patent US20110092427A1, “POLYPEPTIDE AND PHARMACEUTICAL COMPOSITION CONTAINING THE POLYPEPTIDE” (National University Corporation Hokkaido Universit y, priority 2008, published 2011)
Peptide text beside a SMILES is read from it.

Experiments:
[1] = test system: human osteosarcoma cells, MG63; test: Inhibition of MG63 tumor cell proliferation, 5-bromo-2' deoxyuridine incorporation; type: cell-based; details: 100 nM; FIG. 3 and FIG. 4, p<0.01
Protocol: (§1) The inhibitory effect of each polypeptide on tumor cell proliferation with respect to human osteosarcoma cells, MG63 (Health Science Research Resources) was measured in accordance with the method described by Takenaka et al. (Life Science, 2005, Vol. 77, pages 3231-3241).
(§2) Into Dulbecco's modified Eagle's medium (DMEM) supplemented with 10% of fetal bovine serum (FBS) and 100 units/mL penicillin and streptomycin (hereinbelow, simply referred to as a medium), MG63 was suspended. Then, 100 nM commercially available PEDF protein (Sigma) and each of 100 nM polypeptides F1 to F3 prepared in Example 1 “2) Production of polypeptides F1 to F3” were each added per medium, followed by incubation at 37° C. for 24 hours. Subsequently, [^3H] thymidine (Amersham Biosciences Corp.) was added and incubation was carried out for four hours, after which the amount of [^3H] thymidine incorporation by MG63 was measured and the inhibitory effect on tumor cell proliferation was examined.
Also, by carrying out similar operations to the above, the inhibitory effect on MG63 tumor cell proliferation was examined by measuring the amount of 5-bromo-2′ deoxyuridine (Roche) incorporation with addition of each of 100 nM polypeptides P1 to P6. […]

[2] = test system: psoriasis patient-derived skin grafted onto the back of a mouse; test: External application to psoriasis patient skin grafted onto SCID mice; type: in vivo; details: for side effects at the applied sites: 70 μL of 1 mM solution in PBS applied to grafted site daily for 14 days; for thickness of the grafted skin (HE-stained sections): psoriasis skin graft, 70 μL of 1 mM solution applied daily for 14 days, FIG. 6, p<0.05
Excerpt: The hair in the area of approximately 1 cm^2 in the back of 7 to 8 week-old SCID mice (Clea Japan, Inc.) was shaved, and the full-thickness skin was removed while keeping the vessel plexus intact on the fascia overlying back muscles. The skin of affected area of a psoriasis patient that was sampled under the approval of the ethical code was washed with PBS containing 1% penicillin, 1% streptomycine, and 1% amphotericin B, and each piece of the skin thus treated was separately transplanted onto the skin-removed area of the above-described mice.
Seven days after transplantation, 70 μL of each of solutions prepared by dissolving polypeptides P5-1, P5-2, and P5-3 into phosphate buffered saline (PBS) (each 1 mM) was applied to the grafted sites of three mice daily for 14 days. […] Further, as a control, the same volumes of PBS solution containing a polypeptide having a random sequence and PBS without polypeptide were applied. After 14 days, a part of the grafted skin was collected and embedded in an optimal cutting temperature (OCT) reagent (Sakura finetechnical Co., Ltd.) and then frozen in liquid nitrogen, which was then prepared as 5 μm-thick sections.
Also, in accordance with the method of Abe et al. (Am. J. Pathol., 2004, Vol. 164, No. 4, pages 1225-1232), the capillary endothelial cells in the grafted superficial dermis were enumerated by immunoassay employing a rat anti-mouse CD31 antibody using CD31, which was a marker protein of the capillary endothelial cells, as an index.

[3] = test system: human osteosarcoma cells, MG63; test: Inhibition of MG63 tumor cell proliferation, [3H] thymidine incorporation; type: cell-based; details: 100 nM, incubation 24 hours, then [3H] thymidine four hours; FIG. 2, p<0.01
Protocol: as §1, §2

[4] = test system: normal individual-derived skin grafted onto the back of mice; test: Subcutaneous injection at normal individual skin grafted onto SCID mice; type: in vivo; details: skin of a normal individual, 30 μg subcutaneous injection, three times/week for three weeks
Excerpt: (§3) Further, in a similar manner to the above, the hair in the area of approximately 1 cm^2 in the back of 7 to 8 week old SCID mice (Clea Japan, Inc.) was shaved, and the full-thickness skin was removed while keeping the vessel plexus intact on the fascia overlying back muscles. The skin of affected area of a psoriasis patient and the skin of a normal individual that were sampled under the approval of the ethical code were each washed with PBS containing 1% penicillin and 1% amphotericin B, and each of the skin thus treated was separately transplanted onto the skin-removed area of the above-described mice.
(§4) Seven days after transplantation, commercially available PEDF protein (30 μg) was given at the grafted site by subcutaneous injection. The injection was administered for three weeks at three times/week. As a control, a mouse given subcutaneous injection of only PBS was used. The day after the last subcutaneous injection, a part of the grafted skin was collected and stained with HE in a similar manner to the above, and the thickness of the grafted skin was measured. The results obtained from the skin of affected area of a psoriasis patient are shown in FIG. 8 (photograph) and FIG. 9, and the results obtained from the skin of a normal individual are shown in FIG. 10 (photograph) and FIG. 11.
(§5) Also, by carrying out similar operations to the above, the capillary endothelial cells were enumerated using CD31 as an index. The results obtained from the skin of affected area of a psoriasis patient are shown in FIG. 12 and the results obtained from the skin of a normal individual are shown in FIG. 13.
(§6) Further, the frequency of Ki-67 expressing positive cells, where Ki-67 is a proliferation marker of the basal cell layer, was measured in accordance with the method of Gilhar et al. (Am. J. Pathol., 2006, Vol. 168, No. 1, pages 170 to 175). The results obtained from the skin of affected area of a psoriasis patient are shown in FIG. 14 and the results obtained from the skin of a normal individual are shown in FIG. 15.

[5] = test system: psoriasis patient-derived skin grafted onto the back of mice; test: Subcutaneous injection at psoriasis patient skin grafted onto SCID mice; type: in vivo; details: skin of affected area of a psoriasis patient, 30 μg subcutaneous injection, three times/week for three weeks
Excerpt: as §3, §4, §5, §6

## polypeptide P5: polypeptide of SEQ ID NO: 5, identical to the amino acid sequence of positions 381 to 400 of PEDF (HLTFPLDYHLNQPFIFVLRD; listed as Homo sapiens)
[1]
  inhibitory effect on MG63 tumor cell proliferation (amount of 5-bromo-2' deoxyuridine incorporation): an inhibitory effect on tumor cell proliferation was confirmed

## polypeptide P5-2: polypeptide of SEQ ID NO: 2, identical to positions 388 to 394 of PEDF (YHLNQP; listed as Homo sapiens)
[2]
  side effects at the applied sites: no side effects and the like were apparent
  thickness of the grafted skin (HE-stained sections): significantly reduced

## CC(C)C[C@H](NC(=O)[C@@H](N)Cc1c[nH]cn1)C(=O)N[C@H](C(=O)N[C@@H](Cc1ccccc1)C(=O)N1CCC[C@H]1C(=O)N[C@@H](CC(C)C)C(=O)N[C@@H](CC(=O)O)C(=O)O)[C@@H](C)O [polypeptide P5-1] (H-HLTFPLD-OH)
[2]
  side effects at the applied sites: no side effects and the like were apparent

## polypeptide P5-3: polypeptide of SEQ ID NO: 3, identical to positions 395 to 400 of PEDF (FIFVLRD; listed as Homo sapiens)
[2]
  side effects at the applied sites: no side effects and the like were apparent
  thickness of the grafted skin (HE-stained sections): significantly reduced

B1: polypeptide F3: polypeptide comprising the amino acid sequence of positions 301 to 418 of PEDF (SEQ ID NO: 4) (protein, listed as Homo sapiens)
chain: IDRELKTVQAVLTVPKLKLSYEGEVTKSLQEMKLQSLFDSPDFSKITGKPIKLTQVEHRAGFEWNEDGAGTTPSPGLQPAHLTFPLDYHLNQPFIFVLRDTDTGALLFIGKILDPRGP
[3]
  inhibitory effect on tumor cell proliferation (amount of [3H] thymidine incorporation by MG63): a strong inhibitory effect on tumor cell proliferation was confirmed

B2: PEDF protein: commercially available PEDF protein comprising the amino acid sequence of SEQ ID NO: 6 (Sigma) (protein, listed as Homo sapiens)
chain: MQALVLLLCIGALLGHSSCQNPASPPEEGSPDPDSTGALVEEEDPFFKVPVNKLAAAVSNFGYDLYRVRSSTSPTTNVLLSPLSVATALSALSLGAEQRTESIIHRALYYDLISSPDIHGTYKELLDTVTAPQKNLKSASRIVFEKKLRIKSSFVAPLEKSYGTRPRVLTGNPRLDLQEINNWVQAQMKGKLARSTKEIPDEISILLLGVAHFKGQWVTKFDSRKTSLEDFYLDEERTVRVPMMSDPKAVLRYGLDSDLSCKIAQLPLTGSMSIIFFLPLKVTQNLTLIEESLTSEFIHDIDRELKTVQAVLTVPKLKLSYEGEVTKSLQEMKLQSLFDSPDFSKITGKPIKLTQVEHRAGFEWNEDGAGTTPSPGLQPAHLTFPLDYHLNQPFIFVLRDTDTGALLFIGKILDPRGP
[4]; FIG. 11, p<0.05
  thickness of the grafted skin: significantly reduced
[4]; FIG. 13, p<0.05
  number of capillary endothelial cells (CD31-positive): significantly reduced
[4]; FIG. 15, p<0.05
  frequency of Ki-67 expressing positive cells in the basal cell layer: significantly reduced
[5]; FIG. 9, p<0.05
  thickness of the grafted skin: significantly reduced
[5]; FIG. 12, p<0.05
  number of capillary endothelial cells (CD31-positive): significantly reduced
[5]; FIG. 14, p<0.05
  frequency of Ki-67 expressing positive cells in the basal cell layer: significantly reduced
